The target of experiment [1] is T1, CRF-RA1 (hctCRFR) expressed in COSM6 cells (Homo sapiens, UniProt P34998).
T1 construct: expressed in transfected cells; host or cells: COSM6 cells, DEAE-dextran transient transfection of clone hctCRFR in pcDNA1
T1 sequence (P34998 24-415): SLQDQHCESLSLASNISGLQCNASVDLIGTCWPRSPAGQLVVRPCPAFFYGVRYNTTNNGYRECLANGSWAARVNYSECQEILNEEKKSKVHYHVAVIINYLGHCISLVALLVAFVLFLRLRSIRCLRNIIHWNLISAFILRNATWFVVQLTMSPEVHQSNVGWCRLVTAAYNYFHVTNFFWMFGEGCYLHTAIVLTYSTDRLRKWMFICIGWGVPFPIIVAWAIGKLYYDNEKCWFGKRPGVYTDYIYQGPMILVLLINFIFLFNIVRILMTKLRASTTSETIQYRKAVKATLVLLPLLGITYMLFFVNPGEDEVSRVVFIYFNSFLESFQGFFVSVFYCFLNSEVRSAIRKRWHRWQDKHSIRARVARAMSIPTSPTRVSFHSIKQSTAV
Description: CRF-R mediated stimulation of intracellular cAMP in COSM6 cells transfected with hctCRFR. Type of experiment: cell-based. The conditions noted are these: receptor transfected COSM6 cells. As to the method:
To determine the possible linkage of CRF-R to multiple signaling pathways, the ability of CRF-R to stimulate cAMP formation in CRF-R-expressing COSM6 cells was investigated. To ensure that changes in cAMP levels were not influenced by alterations in cAMP phosphodiesterase, the phosphodiesterase inhibitor 3-isobutyl-1-methylxanthine (IBMX) was added to the medium. COSM6 cells were trypsinized 24 hrs following transfection with either ctCRFR or rGnRHR in 150 mm dishes and were replated in 24-well plates (Costar) and allowed to express the receptors for another 24 hrs in 10% FCS, DMEM.
On the day of the stimulation, the medium was changed to 0.1 w FCS, DMEM at least 2 hrs before a 30 minute preincubation with 0.1 mM IBMX or medium. Test ligands (i.e., r/h CRF, sauvagine, salmon calcitonin, Vasoactive intestinal peptide (VIP), growth hormone releasing factor (GRF) were added in 0.1% BSA, 0.1% FCS, DMEM, and stimulation was carried out for 30 minutes at 37° C., 7.5% CO2. The medium was removed and the cells were extracted overnight with 1 ml ice-cold 95% EtOH-0.1M HCl at −20° C. Cyclic AMP (cAMP) levels were determined in duplicate from triplicate wells by RIA kit (Biomedical Technologies, Stoughton, Mass.) following the manufacturer's protocol.

In a further experiment the target is T2, CRF-RB1 (Mus musculus, UniProt Q60748).
T2 construct: The full-length CRF-RB1 receptor cDNA was subcloned into the expression vector pcDNA1; expressed in transfected cells; host or cells: COSM6 cells, DEAE-dextran transient transfection of pCRF-RB1
Description: Competitive displacement of 125I-(Nle21,Tyr32)-ovine CRF from membranes of COSM6 cells transfected with pCRF-RB1. The conditions noted are these: for displacement of bound radioligand (in words): specificity of binding. Type of experiment: binding. As to the method:
Approximately 10^6 COSM6 cells were transfected with either hctCRFR or rGnRHR (rat gonadotropin releasing hormone receptor) by the DEAE-dextran method and grown in 150 mm tissue culture dishes. Two days after transfection, the cells were washed twice with 1 ml HDB and were detached by incubation for 15 min at room temperature in 0.5 mM EDTA in HDB. After pelleting, the cells were washed twice with HDB, and then homogenized in 5% sucrose (16 ml/150 mm dish). The homogenate was centrifuged at 600×g for 5 minutes, and the resulting supernatant was centrifuged at 40,000×g for 20 minutes. The resulting pellet (containing crude membranes) was resuspended at 1-4 mg/ml in 10% sucrose, and used in a competitive radioreceptor assay to measure binding to the CRF-R as described in Perrin et al., Endoc., 118:1171 (1986).
The reaction was terminated by filtration through GF/C (Whatman) filters, prewetted with 1%BSA, 10 mM HEPES, pH 7.5. The filters were washed 4 times with 1 ml 0.1% BSA, 50 mM Tris, pH 7.5.
Using the methods described in Example 3, a radioreceptor assay was conducted. Approximately […] of pCRF-RB1 plasmid DNA was transfected into COSM6 cells using the DEAE dextran method. […] In order to calculate a Kd the displacement data were analyzed using the Ligand program of Munson and Rodbard (1980), Anal. Biochem., 107:220-239.
(In general: Loss of bound radioactivity is the signal in a displacement assay; it reports binding, not function.)

Experiment [2] addresses T3, CRF-RB1 expressed in COSM6 cells (Mus musculus, UniProt Q60748).
T3 construct: The full-length CRF-RB1 receptor cDNA was subcloned into the expression vector pcDNA1; expressed in transfected cells; host or cells: COSM6 cells, DEAE-dextran transient transfection of pCRF-RB1
Description: CRF-RB1 mediated stimulation of intracellular cAMP in COSM6 cells transfected with pCRF-RB1. Type of experiment: cell-based. The conditions noted are these: for stimulation of intracellular cAMP accumulation (in words): FIG. 5. Here is the method: Using methods described in Example 4, the ability of CRF-RB1 to stimulate cAMP formation in CRF-RB1-expressing COSM6 cells was investigated. The plasmid pCRF-RB1 was transfected into COSM6 cells. One day later, the cells were trypsinized and replated in 10% FBS, DMEM into 24 or 48 well COSTAR tissue culture wells, and allowed to grow another 24 hours. The medium was changed to 0.1% FBS, DMEM at least two hours before treatments. The cells were preincubated for 30 minutes with 0.1 mM 3-isobutyl-1-methylxanthine and then exposed to various peptides for 30 minutes at 37° C. Intracellular cAMP was measured in duplicate from triplicate wells using an RIA kit (Biomedical Technologies, Stoughton, Mass.).
Background: Cyclic AMP is a second messenger, typically raised through Gs and lowered through Gi signalling.

For experiment [3], the target named is T4, hCRF-RA1 (CRF receptor encoded by clone hctCRFR) (Homo sapiens, UniProt P34998).
T4 construct: expressed in transfected cells; host or cells: COSM6 cells, DEAE-dextran transient transfection of clone hctCRFR in pcDNA1
T4 sequence (P34998 24-415): T1 sequence (P34998 24-415)
Kind of experiment: Competitive radioreceptor assay: displacement of 125I-(Nle21,Tyr32)-ovine CRF from membranes of COSM6 cells transfected with hctCRFR. Type of experiment: binding. The conditions noted are these: receptor of SEQ ID NO:2. Here is the method: Approximately 10^6 COSM6 cells were transfected with either […] or […] (rat gonadotropin releasing hormone receptor) by the DEAE-dextran method and grown in 150 mm tissue culture dishes. Two days after transfection, the cells were washed twice with 1 ml HDB and were detached by incubation for 15 min at room temperature in 0.5 mM EDTA in HDB. After pelleting, the cells were washed twice with HDB, and then homogenized in 5% sucrose (16 ml/150 mm dish). […] The reaction was terminated by filtration through GF/C (Whatman) filters, prewetted with 1%BSA, 10 mM HEPES, pH 7.5. The filters were washed 4 times with 1 ml 0.1% BSA, 50 mM Tris, pH 7.5. Filter-bound radioactivity, indicating the presence of CRF-R:^125 I-([…],Tyr^32)-ovine CRF complex, was determined by g-scintillation counting.

No end group written: not given here.

T3 sequence (Q60748 1-431 isoform Q60748-2): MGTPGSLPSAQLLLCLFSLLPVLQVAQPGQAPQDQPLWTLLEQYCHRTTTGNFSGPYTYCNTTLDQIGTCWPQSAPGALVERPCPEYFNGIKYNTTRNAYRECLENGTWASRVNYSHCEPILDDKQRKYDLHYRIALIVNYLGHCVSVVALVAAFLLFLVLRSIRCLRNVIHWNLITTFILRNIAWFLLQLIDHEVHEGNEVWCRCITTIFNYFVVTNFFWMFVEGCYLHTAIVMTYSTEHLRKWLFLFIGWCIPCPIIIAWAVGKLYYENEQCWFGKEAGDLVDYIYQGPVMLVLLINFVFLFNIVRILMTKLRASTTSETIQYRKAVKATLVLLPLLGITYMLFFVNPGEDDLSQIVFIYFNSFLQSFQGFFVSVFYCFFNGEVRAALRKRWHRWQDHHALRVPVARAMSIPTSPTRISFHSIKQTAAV
T2 sequence (Q60748 1-431 isoform Q60748-2): as above

For the molecule “gonadotropin releasing hormone: non-related peptide”, in experiment [1], the “effect on cyclic AMP levels / activity of non-related peptides (in words)” value was “inactive”.

Turning to “GRF: growth hormone releasing factor, non-related peptide (YADAIFTNSYRKVLGQLSARKLLQDIMSRQQGESNQERGA)”, the “displacement of bound radioligand (in words)” value with CRF-RB1 is on record as “do not displace”. Also, the “stimulation of intracellular cAMP accumulation (in words)” value (shortened to “stimulation”) in experiment [2] is given as “do not stimulate”. Moreover, in experiment [1], the “effect on cyclic AMP levels / activity of non-related peptides (in words)” value was “inactive”.

For (DPhe^12,Nle^21,38)hCRF(12-41), the “affinity of the CRF-Rs for the ligand (in words)” value (from here on “affinity of the CRF-Rs”) with CRF-RB1 is on record as “high affinity”. Besides, the “inhibition of the CRF signal by antagonist (in words)” value in experiment [2] (1 mM antagonist) is reported as “inhibited”. Further, in experiment [3], the “affinity of the receptor for the ligand (in words)” value (shortened to “affinity of the receptor”) is reported as “high affinity”.

Take `CC[C@H](C)[C@H](NC(=O)[C@@H](NC(=O)[C@H](CC(=O)O)NC(=O)[C@H](CC(C)C)NC(=O)[C@H](CC(C)C)NC(=O)[C@H](CC(C)C)NC(=O)[C@H](CCCNC(=N)N)NC(=O)[C@H](CC(N)=O)NC(=O)[C@H](CC(N)=O)NC(=O)[C@H](C)NC(=O)[C@H](C)NC(=O)[C@H](CCC(N)=O)NC(=O)[C@H](CCC(N)=O)NC(=O)[C@H](CCCCN)NC(=O)[C@H](CCC(=O)O)NC(=O)[C@H](CCCCN)NC(=O)[C@H](CCC(=O)O)NC(=O)[C@H](CCC(N)=O)NC(=O)[C@H](CCCCN)NC(=O)[C@H](CCC(=O)O)NC(=O)[C@@H](NC(=O)[C@H](CCC(=O)O)NC(=O)[C@@H](NC(=O)[C@H](CCSC)NC(=O)[C@H](CCCCN)NC(=O)[C@H](CCCNC(=N)N)NC(=O)[C@H](CC(C)C)NC(=O)[C@H](CC(C)C)NC(=O)[C@H](CCC(=O)O)NC(=O)[C@H](CC(C)C)NC(=O)[C@H](CO)NC(=O)[C@H](CC(C)C)NC(=O)[C@H](CC(=O)O)NC(=O)[C@@H](NC(=O)[C@H](CO)NC(=O)[C@@H](NC(=O)[C@@H]1CCCN1C(=O)[C@@H]1CCCN1C(=O)CNC(=O)[C@@H]1CCC(=O)N1)[C@@H](C)CC)[C@@H](C)CC)[C@@H](C)CC)[C@@H](C)CC)[C@@H](C)O)C(N)=O` [sauvagine]: at CRF-RB1, the “affinity of the CRF-Rs” value is on record as “high affinity”. In experiment [2], the “stimulation” value was “equipotent to CRF”.

With salmon calcitonin: non-related peptide, the “effect on cyclic AMP levels / activity of non-related peptides (in words)” value in experiment [1] is “inactive”.

In the case of “SQEPPISLDLTFHALREVLEMTKADQLAQQAHSNRKLLDIA-NH2 (C-terminus assumed) [[Ala^14]-ovine CRF]”, the “affinity of the receptor” value in experiment [3] is recorded as “very low affinity”.

As a reminder, the Ki is the equilibrium dissociation constant of an inhibitor or competing ligand from its target. With “NDDPPISIDLTFHLLRNMIEMARIENEREQAGLNRKYLDEV-NH2 (C-terminus assumed) [urotensin]”, the “affinity of the CRF-Rs” value on CRF-RB1 is reported as “high affinity”. At CRF-RB1 (on CRF-RB), this molecule gave an inhibition constant (Ki) of 0.7 ± 0.3 nM. Besides, the “stimulation” value in experiment [2] is recorded as “equipotent to CRF”. The “affinity of the receptor” value in experiment [3] is “high affinity”.

In the case of “VIP: vasoactive intestinal peptide, non-related peptide”, in the experiment with CRF-RB1, the “displacement of bound radioligand (in words)” value was “do not displace”. Further, in experiment [2], the “stimulation” value is on record as “do not stimulate”. For the same molecule, the “effect on cyclic AMP levels / activity of non-related peptides (in words)” value in experiment [1] is “inactive”.

Turning to ovine CRF, the “affinity of the receptor” value in experiment [3] was “high affinity”.
